Experimental data reported in the supplement of paper PMC9170038.

Test system: MS2 coat protein
Assay: apparent KD of MS2 coat protein; higher = weaker reporter binding
Settings: Eterna round: R107
Outline: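 Illumina sequencing clusters were used for on-chip transcription of designed RNA switches. Titration with SNAP-549-labelled MS2 coat protein followed, in twofold steps from 0.7 or 1.5 nM to 3 µM in 100 mM Tris-HCl pH 7.5, 80 mM KCl, 4 mM MgCl2, without or with constant ligand. Apparent KD is each design's median of fits to normalised cluster binding curves.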

[1] = input ligand: theophylline 20 uM
[2] = input ligand: theophylline 2 mM
[3] = input ligand: tryptophan 2.4 mM

| Sequence | apparent KD of MS2 coat protein (input ligand: arginine 13.2 mM) [nM] | apparent KD of MS2 coat protein [1] [nM] | apparent KD of MS2 coat protein [2] [nM] | apparent KD of MS2 coat protein [3] [nM] | apparent KD of MS2 coat protein (input ligand: none) [nM] |
| --- | --- | --- | --- | --- | --- |
| CACGAAAGAUCGGCCGCCACUAUUUGAUGUGUUCUUUCACAUGAGGAUCACCCAUGUUCUUAUUUUAGGACCGGGAUUGAGCGUG [ETB #2] | 72.7 | 142 | 145 | – | – |
| UCCUCCUCCGGAAGGAGGAGGAGUUGCGAUACCAGCCCGGAAACGGGCCCUUGGCAGCGCACAUGAGGAUCACCCAUGUCAUGUU [#1 Exclusion - Theophylline A Attempt #7 (HarryS)] | 16.7 | 26.3 | – | 18.8 | – |
| UGUCAGCGAAAGUUGACAUGUCUUGCUGGUCGAGGACCGGUACGGCCGCCACUCGAUCUCUCGCACAUGAGGAUCACCCAUGUUG [SS Tryp A #23] | 13.9 | 14.4 | 13.9 | – | – |
| AAUAAGAUGAGGAUCACCCAUCUAAAAGAUACCAGAGUGAUGAUCCUCCCUUGGCAGCUUAACGCUGAUUGAUUACAAUCAGCGA | 21.7 | 124 | 121 | 25.3 | 47.2 |
| UGUUUGGUGCGCGAGUGUUGGAUAAUUGAUACCAGUGAAGAAGAGCGCCCUUGGCAGCGAAUCCUAACAUGAGGAUCACCCAUGU [5.U] | 41.5 | 84.8 | 51.7 | 39 | 39.7 |
| ACAUGAGGAUCACCCAUGUGCCGUCUUGAUACCAGACGCGAAGUAGUCCCUUGGCAGCAAAUACGUGAGGGUCGCGCAUGUGUAA [wzxmullin] | 21.8 | 27.3 | – | 24.9 | – |
| ACGCGCUGGGCGGCCGCCACUCACCUGCCGUGGACAUUUCGAGGUCACAUGAGGAUCACCCAUGUGAGGACCGGGCCCUGUAGGC [theeternabot_exclusion_MS2_Trp_B_37] | 12.3 | 17 | 12.7 | – | – |
| ACAUUAGCCACGGCCGCCACUGCCUUAUGAUUAUAAGGAUUAAUGAACAUGAGGAUCACCCAUGUCAGGACCGGGUGCCUACCAU [SSTryp B #5] | 20.1 | 32.5 | 26.5 | – | – |
| CCAUUGAUGACGGCCGCCACUGUCUACAUGAGGAUCACCCAUGUAUAGCAGGGUGGACCUAUGGACAGGACCGGGUCACUUGUCC [Tryp B Ex t7] | 10.4 | 13.7 | 12.4 | – | – |
| AGGACAUGAGGAUCACCCAUGUACUCUGAAGGAGCGUCGAGAACGACAGGUAGGUCGCAGGCUAAGGAAGGUGAUGCUCAAGAAG [Exclusion Arginine A GF7] | 20.1 | 37.3 | 24.8 | 15.2 | 20.2 |
| UGUAUGUGAUCUGAUACCAGAGUUGAUAAUCUGAGGAUCACCCUGGUAAGGCGAAAGCCACUCCCUUGGCAGCAGAUCGCAUACU | 106 | 874 | 175 | 725 | 306 |
| GACGAUAUGAUACGUCAGCAAUCCUCGAAACGAGGACCGGUACGGCCGCCACUCGAGUGAUACACAUGAGGAUCACCCAUGUACC [Tryp A Ex t3] | 30.9 | 49.6 | 49.4 | – | – |
| CAAUGCAGGUCGGCCGCCACUACACACAUGAGGAUCACCCAUGUAGUUACUGGGUGAAGUGGCAGUAGGACCGGGACCUGCAUAA [Brourdmod02] | 143 | 417 | 568 | – | – |
| UGACAUGAGGAUCACCCAUGUAUAACUGAAGGAGCGUCCAUAAGGACAGGUAGGUCGCGGAAUGAACAGAGUGCACGACAUGUUU [Arg A SS t1] | 12.8 | 17.7 | 14.3 | 14.2 | 13.3 |
| ACUUGUGAGUCGGCCGCCACUCACCGGUAGUGUCACUCGUUCACAAACAUGAGGAUCACCCAUGUGAGGACCGGGACAGUCGGGU [theeternabot_exclusion_MS2_Trp_B_28] | 13.5 | 25.4 | 16.3 | – | – |
